Test [1] addresses Zika virus envelope glycoprotein E, as displayed on recombinant F2A virus-like particles (Zika virus (strain BeH818995)). Briefly: SDS-PAGE with Western blot; fractions of the two-step chromatographic purification of F2A VLPs (HiTrap Capto Q, then HiScreen Capto Core 700 flow-through); immunoblot of E.
For test [2] the target is unchanged. Briefly: non-reducing SDS-PAGE with Western blot; cell culture medium of transfected 293T cells, 72 and 96 h posttransfection at 37°C, 20 μg of total protein per sample; nonreducing conditions; E detected with monoclonal 4G2 antibody.

As to “Zika virus envelope glycoprotein E, as displayed on recombinant F2A virus-like particles (natural protein)”, the stoichiometry N in test [1] and in test [2] was 2 in each case.

For orientation: stoichiometry N means the number of molecules, sites or subunits per partner or assembly.

These data come from article PMC9927573.
